Reference: publication PMC3983052

Biological target: AaSR-C-Full (full-length A. aegypti scavenger receptor-C with its trans-membrane region, 23-494 aa) (Aedes aegypti)
Test: flow cytometry on cells

purified inactivated DENV-2 virions (complex)
percent of AaSR-C-expressing cells bound by DENV-2 virions: > 90%
